Values quoted from earlier work in paper PMC7229808.

Molecular target: PCNA (Saccharomyces cerevisiae) (UniProt P15873)
Assay: NMR titration

Sequence of UniProt P15873 (P15873 whole entry): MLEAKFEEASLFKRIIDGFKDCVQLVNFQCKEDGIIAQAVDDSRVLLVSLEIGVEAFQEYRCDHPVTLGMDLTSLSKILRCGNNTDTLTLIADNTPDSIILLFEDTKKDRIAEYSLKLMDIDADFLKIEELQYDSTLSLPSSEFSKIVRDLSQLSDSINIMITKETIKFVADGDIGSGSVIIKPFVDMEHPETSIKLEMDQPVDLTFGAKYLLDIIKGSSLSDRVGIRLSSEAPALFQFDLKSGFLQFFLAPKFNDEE

Rev1 BRCT (from UniProt P12689)
Kd: 78 µM
